One substance from patent US11203773B2, “Designer ribosomes and methods of use thereof for incorporating non-standard amino acids into polypeptides” (Yale University, priority 2016, dated 2021) can be followed below.

For data set [1], the system named is N[C@@H](CCC(=O)O)C(=O)O. The data set can be described thus: Aminoacylation of 32P-tRNA with α- and β3-amino acids. Type of data set: biochemical, E. coli. To be noted: other: aminoacylation, GluRS.
Data set [2] deals with N[C@@H](CCC(=O)O)C(=O)O. In words: purified protein, by the assay type. Particulars: other: adenylation, GluRS; pH 7.0; 25.0 °C.
Protocol: Adenylation of α- and β-Amino Acids Catalyzed by E. coli PheRS, GlyRS, MetRS, and GluRS. […] Briefly, assay mixtures (50 μL) assembled at 25° C. contained the requisite α- or β^3-amino acid substrate (between 5 μM and 5 mM) in 100 mM HEPES (pH 7.0) containing 100 mM KCl, 15 mM MgCl2, 2 mM ATP, 0.5 mM NaPPi, and 50 μCi [^32P]-NaPPi). Reactions were initiated upon addition of enzyme (10 nM MetRS, 10 nM PheRS, or 50 nM GlyRS; 100 nM GluRS for reactions with α-Glu or 1.13 μM GluRS for reactions with β^3-Glu), incubated for various times (10 sec to 10 min), and halted by adding a 5 μL reaction aliquot to 100 μL quenching solution (10% charcoal, 0.5% HCl). 50 μL of 200 mM NaPPi in 1.5 N HCl was then added to each quenched reaction to decrease nonspecific binding of pyrophosphate to the charcoal. Each quenched reaction was then filtered through Whatman filter paper (number 3), previously washed with washing solution (200 mM NaPPi in 1 N HCl) using a 96-well BIO-DOT® apparatus (BioRad). Each well of the apparatus was then washed four times with 200 μL aliquots of washing solution (by pipetting washing solution up and down at least 10 times per wash) to minimize nonspecific binding of pyrophosphate to charcoal. Each experimental well was paired with an analogous control well (no-enzyme control) that lacked enzyme; a single membrane contained time points for both α- and β^3-amino acid substrates and all no-enzyme controls. The membrane was allowed to dry and was protected with a sheet of Microseal B adhesive seals (Biorad) prior to exposure to a BAS Storage Phosphor screen. Screens were imaged on a Typhoon 9500FLA biomolecule imager and the signal intensity of each dot was quantified using ImageJ to determine the relative amount of [^32P]-ATP formed as a function of time (Ctime). Each raw value were corrected by subtracting the intensity of the dot corresponding to the appropriate no-enzyme control (Cblank) and the resulting corrected values of Ccorr (representing the relative amounts of ^32P-ATP formed) were plotted as a function of time to determine values of relative ^32P-ATP formed per minute. Those values were divided by the concentration of enzyme used, and the data was plotted as relative specific activity (^32P-ATP formed min^−1×μM^−1 enzyme) and fitted using Prism by performing nonlinear regression using the least squares method and Equation 1 to obtain RSA (relative specific activity) and KM values (Equation 1 and Table 2).
In Equation 1, v is the apparent relative specific activity (relative ^32P-ATP formed per minute) obtained at each substrate concentration divided by the enzyme concentration, RSA is the relative specific activity, S is the concentration of substrate, and KM is the Michaelis-Menten constant.

As to E. coli GluRS (Escherichia coli K-12), in the data set with N[C@@H](CCC(=O)O)C(=O)O [1], the Km (usually the concentration of substrate that gives half-maximal velocity) worked out at 277.1 ± 101.5 µM; the kcat (in general, the number of substrate molecules converted per active site and unit of time at saturation) was 0.000767 ± 6.67e-05 s⁻¹; the kcat/Km (usually the turnover number divided by the Michaelis constant) stood at 2.67 ± 1 M⁻¹ s⁻¹. In the data set on N[C@@H](CCC(=O)O)C(=O)O [2], the Km was 76.4 ± 43.0 µM, the kcat came to 22.5 ± 3.43 s⁻¹ and the kcat/Km is 293000 ± 172000 M⁻¹ s⁻¹.
